These results are taken from PMC7888922.

The target in assay [1] is sACE2_(2).v2.4-IgG1 (human) (UniProt Q9BYF1). The experiment in a line: BLI. For orientation: BLI is a label-free optical method that tracks binding on a fibre tip over time.
Assay [2] concerns the target WT sACE2_(2)-IgG1 (human) (UniProt Q9BYF1). As to the kind of experiment: BLI.

As to RsSHC014 RBD-8h (domain or fragment), in assay [1], the Kd (usually the concentration at which binding is half-saturated) was found to be 1.3 nM; the koff (in general, a measure of how fast the partners let go of each other) came to 0.002 s⁻¹; the kon (commonly the second-order rate constant of association) was determined as 1.6e+06 M⁻¹ s⁻¹. In assay [2], this substance gave a Kd of 29 nM, a koff of 0.026 s⁻¹ and a kon of 880000 M⁻¹ s⁻¹.

In the case of “SARS-CoV-2 RBD-8h (from UniProt P0DTC2 333-529) (domain or fragment)”, in assay [1], the Kd was found to be 0.4 nM, the off-rate constant (koff) was found to be 0.00028 s⁻¹ and the on-rate (kon) worked out at 660000 M⁻¹ s⁻¹.
